# Reference: US20240101667A1, “METHODS FOR IDENTIFYING LILRB-BLOCKING ANTIBODIES” (THE BOARD OF REGENTS OF THE UNIVERSITY OF TEXAS SYSTEM, priority 2020, published 2024)
# B1: anti-LILRB3 #1 N297A: IgG #1 with Fc glycosylation N297A mutation, defective Fc-mediated effector functions (antibody, V domains shown)
# VH: EVQLVESGGGVVQPGRSLRLSCAASGFTFSSYGMHWVRQAPGKGLEWVAFIRYDGSNKYYADSVKGRFTISRDNSKNTLYLQMNSLRAEDTAVYYCAKAGFSGWYYYGMDVWGQGTMVTVSS
# VL: DIVMTQSPSSLSASVGDRLTITCRASQSISTYLNWYQQKPGKAPKLLIYGASSLQSGVPSRFSGSGSGTDFTLTISSLQPEDFATYFCQQSYGLPLTFGGGTKVDIK
# Assay: Myeloid LysM-Cre driven LILRB3-transgenic C57BL/6 mice, hematopoiesis
# Assay type: in vivo, mouse
# Description: FIGS. S7A-C. […] (FIG. S7a) Schematic of generation of myeloid-specific LILRB3 transgenic mice. (FIGS. S7b-c) LILRB3 is expressed on myeloid cells in peripheral blood (PB), spleen (SPL) and bone marrow (BM) of LysM-Cre driven LILRB3 transgenic mice, which were treated by anti-LILRB3 #1 antibody (n=2 mice) or IgG (n=3 mice). Shown are representative flow cytometry plots (FIG. S7b) and result summary (FIG. S7c).
# LILRB3 transgenic mice. LILRB3 cDNA was constructed into pR26 CAG AsiSI/MluI. Then the plasmid was purified with high concentration in the absence of endotoxin. Cas9 RNA, gRNA targeting mouse Rosa26 locus and the LILRB3 plasmid co-injected into mouse oocytes at the transgenic core facility of UTSW. The LILRB3 positive mice were identified by LILRB3 specific primers and crossbred with LysMcre mice (JAX, 004781). The LILRB3^+LysMcre^+ mice were analyzed with co-expression of LILRB3 and Mac-1 or Gr-1 in peripheral blood, spleen and bone marrow.
molecule,measurement,setting,value
B1,normal hematopoiesis and leukocytosis,LILRB3 transgenic mice,did not affect normal hematopoiesis and leukocytosis
same,toxicity,suggested from the transgenic mice,low toxicity
